Measured values published in US20130005646A1 (Novo Nordisk, published 2013).
Starred links: 1 amine or outer side, 2 acyl side, 3 side chain; linkers in the order of their positions; H or OH if unused. Positions of bridges follow the written chain, without caps; N, C: chain ends. *: point of attachment. C20 diacid = O=C(O)CCCCCCCCCCCCCCCCCCC(=O)*; γGlu = O=C(O)[C@H](CCC(=O)[*:2])N[*:1]

T1: human calcitonin (a) receptor (human, UniProt P30988 25-474)
T1 sequence (looked up): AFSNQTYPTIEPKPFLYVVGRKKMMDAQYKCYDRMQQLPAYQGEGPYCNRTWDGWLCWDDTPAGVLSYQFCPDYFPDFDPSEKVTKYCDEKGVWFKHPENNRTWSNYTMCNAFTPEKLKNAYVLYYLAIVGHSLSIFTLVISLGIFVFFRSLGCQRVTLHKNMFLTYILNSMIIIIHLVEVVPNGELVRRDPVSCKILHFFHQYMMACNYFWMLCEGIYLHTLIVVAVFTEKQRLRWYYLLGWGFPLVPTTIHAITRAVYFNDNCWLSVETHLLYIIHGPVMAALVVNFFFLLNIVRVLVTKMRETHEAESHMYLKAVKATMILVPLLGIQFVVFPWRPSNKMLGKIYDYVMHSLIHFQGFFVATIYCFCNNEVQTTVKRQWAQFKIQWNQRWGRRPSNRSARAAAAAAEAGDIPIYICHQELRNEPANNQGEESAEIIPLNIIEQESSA

T2: human amylin 3(a) receptor (human calcitonin receptor + RAMP-3) (human, UniProt P30988 25-474; O60896 24-148)
T2 sequence (looked up) 1: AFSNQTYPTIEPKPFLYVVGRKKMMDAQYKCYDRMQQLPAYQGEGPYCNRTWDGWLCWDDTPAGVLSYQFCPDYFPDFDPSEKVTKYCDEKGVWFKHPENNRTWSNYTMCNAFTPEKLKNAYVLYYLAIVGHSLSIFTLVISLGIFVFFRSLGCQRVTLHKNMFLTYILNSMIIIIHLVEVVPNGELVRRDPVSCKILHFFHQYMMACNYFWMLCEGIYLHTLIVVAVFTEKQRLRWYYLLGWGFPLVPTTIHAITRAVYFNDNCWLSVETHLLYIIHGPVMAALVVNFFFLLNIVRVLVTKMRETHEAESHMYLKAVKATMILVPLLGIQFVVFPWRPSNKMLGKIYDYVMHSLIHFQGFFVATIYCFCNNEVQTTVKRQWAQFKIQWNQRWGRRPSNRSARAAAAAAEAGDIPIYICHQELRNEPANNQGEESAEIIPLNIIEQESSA
T2 sequence (looked up) 2: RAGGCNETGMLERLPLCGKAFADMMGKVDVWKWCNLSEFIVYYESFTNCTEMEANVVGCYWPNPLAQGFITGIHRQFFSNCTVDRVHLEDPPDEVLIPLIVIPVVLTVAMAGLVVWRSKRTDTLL

B1: N-alpha-[(S)-4-Carboxy-4-(19-carboxynonadecanoylamino)butyryl]-Glu-Arg-[Glu1,Glu14,His17,Pro37]-pramlintide (peptide)
peptide: {C20 diacid-γGlu}-ERECNTATCATQRLAEFLHHSSNNFGPILPPTNVGSNTP-NH2
modifications: disulfide 4-9
SMILES: CC[C@H](C)[C@H](NC(=O)[C@@H]1CCCN1C(=O)CNC(=O)[C@H](Cc1ccccc1)NC(=O)[C@H](CC(N)=O)NC(=O)[C@H](CC(N)=O)NC(=O)[C@H](CO)NC(=O)[C@H](CO)NC(=O)[C@H](Cc1c[nH]cn1)NC(=O)[C@H](Cc1c[nH]cn1)NC(=O)[C@H](CC(C)C)NC(=O)[C@H](Cc1ccccc1)NC(=O)[C@H](CCC(=O)O)NC(=O)[C@H](C)NC(=O)[C@H](CC(C)C)NC(=O)[C@H](CCCNC(=N)N)NC(=O)[C@H](CCC(N)=O)NC(=O)[C@@H](NC(=O)[C@H](C)NC(=O)[C@@H]1CSSC[C@H](NC(=O)[C@H](CCC(=O)O)NC(=O)[C@H](CCCNC(=N)N)NC(=O)[C@H](CCC(=O)O)NC(=O)CC[C@H](NC(=O)CCCCCCCCCCCCCCCCCCC(=O)O)C(=O)O)C(=O)N[C@@H](CC(N)=O)C(=O)N[C@@H]([C@@H](C)O)C(=O)N[C@@H](C)C(=O)N[C@@H]([C@@H](C)O)C(=O)N1)[C@@H](C)O)C(=O)N[C@@H](CC(C)C)C(=O)N1CCC[C@H]1C(=O)N1CCC[C@H]1C(=O)N[C@H](C(=O)N[C@@H](CC(N)=O)C(=O)N[C@H](C(=O)NCC(=O)N[C@@H](CO)C(=O)N[C@@H](CC(N)=O)C(=O)N[C@H](C(=O)N1CCC[C@H]1C(N)=O)[C@@H](C)O)C(C)C)[C@@H](C)O
B2: N-alpha-[(S)-4-Carboxy-4-(19-carboxynonadecanoylamino)butyryl]-Glu-Arg-[Glu1,Glu14,Arg17,Pro37]-pramlintide (peptide)
peptide: {C20 diacid-γGlu}-ERECNTATCATQRLAEFLRHSSNNFGPILPPTNVGSNTP-NH2
modifications: disulfide 4-9
SMILES: CC[C@H](C)[C@H](NC(=O)[C@@H]1CCCN1C(=O)CNC(=O)[C@H](Cc1ccccc1)NC(=O)[C@H](CC(N)=O)NC(=O)[C@H](CC(N)=O)NC(=O)[C@H](CO)NC(=O)[C@H](CO)NC(=O)[C@H](Cc1c[nH]cn1)NC(=O)[C@H](CCCNC(=N)N)NC(=O)[C@H](CC(C)C)NC(=O)[C@H](Cc1ccccc1)NC(=O)[C@H](CCC(=O)O)NC(=O)[C@H](C)NC(=O)[C@H](CC(C)C)NC(=O)[C@H](CCCNC(=N)N)NC(=O)[C@H](CCC(N)=O)NC(=O)[C@@H](NC(=O)[C@H](C)NC(=O)[C@@H]1CSSC[C@H](NC(=O)[C@H](CCC(=O)O)NC(=O)[C@H](CCCNC(=N)N)NC(=O)[C@H](CCC(=O)O)NC(=O)CC[C@H](NC(=O)CCCCCCCCCCCCCCCCCCC(=O)O)C(=O)O)C(=O)N[C@@H](CC(N)=O)C(=O)N[C@@H]([C@@H](C)O)C(=O)N[C@@H](C)C(=O)N[C@@H]([C@@H](C)O)C(=O)N1)[C@@H](C)O)C(=O)N[C@@H](CC(C)C)C(=O)N1CCC[C@H]1C(=O)N1CCC[C@H]1C(=O)N[C@H](C(=O)N[C@@H](CC(N)=O)C(=O)N[C@H](C(=O)NCC(=O)N[C@@H](CO)C(=O)N[C@@H](CC(N)=O)C(=O)N[C@H](C(=O)N1CCC[C@H]1C(N)=O)[C@@H](C)O)C(C)C)[C@@H](C)O

Assays:
[1] = target: T1, human calcitonin (a) receptor; assay: cell-based or functional assay
[2] = target: T2, human amylin 3(a) receptor (human …); assay: cell-based or functional assay

Binder | CTa receptor human EC50 [1] [nM] | Amylin receptor human EC50 [2] [nM]
B1 | 0.378 | 0.136
B2 | 0.367 | 0.0895
